In this experiment the target is assembled microtubules. In words: co-sedimentation.

“His6-Eg5[Thr926Ala] (baculovirus) (from UniProt P52732 1-1056) (natural protein)”: the percent of wildtype Eg5 recovered in the microtubule pellet worked out at 28%.
Consider “His6-Eg5[Ser1033Asp] (baculovirus) (from UniProt P52732 1-1056) (natural protein)”, for which the percent of wildtype Eg5 recovered in the microtubule pellet came to 42%.

These data come from publication PMC4066659.
